Article PMC3324619

How the values were obtained:
[1] = target: CytERM-EGFP (not stated | Aequorea victoria) (UniProt P00180)
CytERM-TagRFP = CytERM-TagRFP (UniProt P00180)

Chain of CytERM-TagRFP (P00180 whole entry): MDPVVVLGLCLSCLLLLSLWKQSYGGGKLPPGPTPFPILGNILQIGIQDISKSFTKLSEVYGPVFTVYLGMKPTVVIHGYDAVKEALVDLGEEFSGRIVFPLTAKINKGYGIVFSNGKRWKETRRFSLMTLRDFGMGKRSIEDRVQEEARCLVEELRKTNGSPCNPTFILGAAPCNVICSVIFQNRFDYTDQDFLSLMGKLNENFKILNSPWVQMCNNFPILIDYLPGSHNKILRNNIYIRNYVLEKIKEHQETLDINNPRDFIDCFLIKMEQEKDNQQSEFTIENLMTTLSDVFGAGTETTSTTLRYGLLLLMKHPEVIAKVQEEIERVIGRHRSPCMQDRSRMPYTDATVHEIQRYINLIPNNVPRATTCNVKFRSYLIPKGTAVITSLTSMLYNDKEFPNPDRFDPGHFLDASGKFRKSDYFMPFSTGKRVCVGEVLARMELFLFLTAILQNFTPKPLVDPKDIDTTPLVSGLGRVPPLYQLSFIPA

Substance	OSER assay: average structure area, U2OS cells [1] [μm^2]	OSER assay: ratio of structure MFI to nuclear envelope MFI, U2OS cells (CytERM-TagRFP)
CytERM-EGFP (from UniProt P00180 1-29)	8.7	
CytERM-TagRFP (from UniProt P00180 1-29)		3.9
